Substrate in the series: C=C(C)CCO[P@@](=O)(O)OP(=O)(O)O
Kind of series: purified protein, by the assay type. Conditions: other: saturating excess of GPP (∼500-fold over enzyme, 10-fold over IPP), steady-state equation accounting for product inhibition, Kp 6 μM, 30 °C, pH 7.5.

B1: human FPPS (Homo sapiens) (protein)
chain: MNGDQNSDVYAQEKQDFVQHFSQIVRVLTEDEMGHPEIGDAIARLKEVLEYNAIGGKYNRGLTVVVAFRELVEPRKQDADSLQRAWTVGWCVELLQAFFLVADDIMDSSLTRRGQICWYQKPGVGLDAINDANLLEACIYRLLKLYCREQPYYLNLIELFLQSSYQTEIGQTLDLLTAPQGNVDLVRFTEKRYKSIVKYKTAFYSFYLPIAAAMYMAGIDGEKEHANAKKILLEMGEFFQIQDDYLDLFGDPSVTGKIGTDIQDNKCSWLVVQCLQRATPEQYQILKENYGQKEAEKVARVKALYEELDLPAVFLQYEEDSYSHIMALIEQYAAPLPPAVFLGLARKIYKRRK
Regarding B1, the Km was determined as 1.1 µM.
